Measured values: the supplement of paper PMC9170038

system: K4 kissing-loop RNA reporter; test: apparent KD of K4 kissing-loop reporter; higher = weaker reporter binding; settings: Eterna round: R107; input ligand: none
Protocol: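 RNA-MaP round R107: designed RNA switches with theophylline, tryptophan, arginine or FMN aptamers are transcribed on-chip within common flanks. They are titrated with a labelled K4 kissing-loop RNA reporter in RNA-MaP buffer (100 mM Tris pH 7.5, 80 mM KCl, 4 mM MgCl2), without ligand or with the indicated ligand. Median apparent KD per design.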
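Note: bound reporter read as fluorescence of individual clusters on recovered sequencing chips by microscopy, with normalized cluster intensities fitted with a binding model.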

Sequence	apparent KD of K4 kissing-loop reporter [nM]
UUUUAAUAAAAGGAUACCAGUACAAAUAAAGUACAUUAAUAGUAGAGUGAUGUUCUAAAGUACCCUUGGCAGCUUAGAGUAAGUU [#17 K4 Theophylline B Exclusion]	160
UGAUACCAGACGGCCGCCACUGCACCAGUCAAUGACUGAGUGUAGUAAUGCUCAGUGAUGUUGAGUAGGACCGGGUCUGGUAUCU [Mod of Eli's TrypBX 8 v1]	128
GAUUACAACAGAGUGAUGUUCUGACUUUCUCGAGGACCGGUACGGCCGCCACUCGUUAAACAAAGUGGUUUGCCAAGGCCAACUU	157
GGCACGUUCCCUUGAUCAGUGAUGUUGUUUCGAGGACCGGUACGGCCGCCACUCGCUCGGCGUUCGCCCAGGCCCGGAAAACUGC [theeternabot_exclusion_KL_Trp_A_13]	224
UGUACCGAGUCAGGAUAUAGCGUCGAAAGACGAAUCCUAGUGAUGUUAGGGAUCUGCGAAAGCAGUCUAGAAGGGACUUGGUACU [FmnBS 26 A19+U68]	295
CGAUUUGCUUCAGCCUUAGUGAUGUUAAGGCGAGGACCGGUACGGCCGCCACUCGUAGGUUAUGUGCACGGCGGCGCUAAGGGCC [theeternabot_exclusion_KL_Trp_A_36]	111
CGGAUGUAGUGAUGUUAUAUAAGAAGUAGACGAGGACCGGUACGGCCGCCACUCGAAACGGCUACUAGCGCGUUGCGAGGUGUGC [ExTryptoA.Ch]	549
UUCUUGAUGGAAACAUCGAGGAUCACUGAUACCAGUAUCGAUAGAUACCCUUGGCAGCAGUGUCGGUGGUCACGAGUGAUGUUCG [Ex Theophylline A K4 12]	811
GGAUCCUAGGCGGCCGCCACUCCAAUUGGCCGAAAGGCCUGAUACCGAGUGAUGUUCGGUUGGAGGAGGACCGGGCCUAGGAUCC [#2 Exclusion - Tryptophan B Attempt #2 (HarryS)]	118
UACAGGGAUAGUGAUGUUAUCCCAUGUGAUACCAGUGCCAUCCAACACCCUUGGCAGCAUACGGGCAGUGAUGUUGUUCUUGGUU [Exclusion Theophylline A GF 13]	93.7
AUGUACACGAUAGUGUACUCCUAGUGAUGUUAGGAUAUGCAGAUAUGCAGAAGGGACAAGUCAUCUGACAAUAGUCGGAUGACAA [FmnAX 10 #OpenEnded #K4Early]	109
AGGUGAGACUGAAGGAGCGAUCGCGCUAGUGAUGUUGGCGAGCAUGACAAAGUCAUGCACGAUCAGGUAGGUCGCAGUCUUACUC [Omei KL Arginine B SS B v1]	137
AAGAAUAAUCUUGCAGUGAUGUUGCAAGAUACCAGCAUCGAAAGAUGCCCUUGGCAGCUUGAAAACAUCACUAUCAAGCUGCAUA [Design2]	664
UUAAUAAUUCAAGGAUAUGUUUUCUAUUUCGAGUGAUGUUCGGAAUUAAUAAAUUUAAAAGAUUAUACAGAAGGUGAUAAAUAGU [Cynwulf-mod#2]	85.9
UGUCAUUGGUCUGAUACCAGUACCCUUGGCAGCCAAGGAGUGAUGUUCCAAGGAUACCAGUGCCCUUGGCAGCAGACCGAUGACU [TheoBS 12 #DoubleAptamer #SwitchBubble]	1120
UGCCGGGCUGUACGUUACUUAAAUCGCGAUACCAGCGAUACAAUCCGCCCUUGGCAGCGCAGUGAUGUUGCGCGGUCAUUACGGG [theeternabot_exclusion_KL_Theo_A_27]	95.8
UUAUAUUUUAUAUUUAGUAGAGCUCUAGCUCGAGGACCGGUACGGCCGCCACUCGAGUGAUGUUCGAGUGGGUGAGCUCUACAUU [AK3 EXC Tryptophan A]	103
UCCUAGGUUCGUCGGCGAAAGCCCUGCGAAGGAGCGUGCGAAAGCACAGGUAGGUCGCGCAGUGAUGUUGCACCUAGGUAAUAAA [#SwitchBubble 23 #K4Late]	344
UAGGUUUAAUCGGCCGCCACUAUCAGAGCGCCAGUGAUGUUGGAGUAACGAUCGUGGCGAGUUAAUAGGACCGGGAUUCAACACA [Velazaer]	141
AUGCGCGCGGCGGCCGCCACUCGCAUGAGAGUGAUGUUCUCGCCGUGCCCGUAAGGGUGCGGUGUGAGGACCGGGCCGGGCUGCG [#2 Same State - Tryptophan B Attempt #20 (HarryS)]	227
GUGCGUAAGUGAUGUUUACGUCAGCUCCGCAAGGAUAUCCUGAUUAGGAGAAGGUGCGGGAACUAAAGACGCUCGUUCUAGCAGG [theeternabot_exclusion_KL_FMN_A_33]	205

same assay, conditions: Eterna round: R107; input ligand: theophylline 20 uM

Sequence	apparent KD of K4 kissing-loop reporter [nM]
UGUCAUUGGUCGGCCGCCACUAAAUAAAAGAGUGAUGUUCUUAAGACGGAUCGAAAGAUCUGUCAUAGGACCGGGACCGAUGACU [TrypBS 21 #SwitchBubble #StaticStem]	888
AAACGUUGGUGCGAUACCAGCUGCUCGGAAACGAGCUUGCUGGAGUGAUGUUCCAGGAAAAGCCCUUGGCAGCGCACCGACGAAA [MAT - Same State Theophlline B - Mod of Eli - D27]	738
UUUAGGAACUGAGGAUAUUCGAAGAAAUAUAGUGAUGUUAUAUAAGGAGGAGGAGGGAGGGAGGAAGGAGAAGGCAGAAGAGGAG [ExFMNB.E]	330
CCAUUCAGUUACGAUACCAGUCUAAUAUAUUUGAUCAAAACCCUCGCCGAGUGAUGUUCGGACCCUUGGCAGCGUCUGGGACAGG [xxcetmullin]	379
CCUAUCUCAUACGAUACCAGUGAUUAACCAGUGAUGUUGGAAUAACCAAGGAAUAUUUUUCACCCUUGGCAGCGUAUGGGAUAGG [Ex Theophylline B K4 26]	61.9
AAGUGUGUGGCGGCCGCCACUAGAAUCCAGUGAUGUUGGAGAUAUCACGUAAGUGAUAUCCACCAUAGGACCGGGCCAUAUAGAA [Same State - Tryptophan B (Freestyle 13)]	428
UAUAUGCAGUGAUGUUGCGGCACACUUCCGAAGGAUAUGUCCGGUGACAGAAGGUCGGUCCAUGGGACAUCACGUGUGCUUGAUG [theeternabot_exclusion_KL_FMN_A_15]	529
AAAAUAAAUCAGUGAUGUUGGUAUCUGGAUACCAGCGAUAAUAGUCGCCCUUGGCAGCCAUGGACGUACAAAAUAAGUACGUCCU [MatMod 19 - Jieux - Same State - Theophylline A]	170
UAUAAGCGCAGAGGAUAUACUAGCUUUCACUAGUGCAGUGAUGUUGCACUAGACCAGCUGUACAUAGUAGAAGGCUGCGUUCCUU [FMN B SS t1]	131
AUGGCACCUGCGGCCGCCACUCACUCCGGGCUGCUGGCCAGUGAUGUUGGUACGGCUGCCGGUUAGAGGACCGGGCAGGAGCUAA [Rienisdite]	97.8
GCCGUACGCAUGGAUACCAGCUAGACCGAGUGAUGUUCAGGUCUGAAUGCCGGUAAUAAGAGCCCUUGGCAGCCAUGCGUACGGC	335
GGAUAGGACACGGCCGCCACUACCGAGGAUACUCGAAACAUUUCCUCAGAUGAGUGAUGUUCAUCUAGGACCGGGUGUCCUAUCG [KL-XTryp-B19 #analogue]	121
UAAUAUCAACUUGUAGGAGUGAUGUUCCGCCGAGGACCGGUACGGCCGCCACUCGACAAAAUCUCAGUGUGGUACCUAGGAAUUU [theeternabot_exclusion_KL_Trp_A_24]	352
GAUAGGAAACUAUCAAAUCGGGAAACCGAUACCAGUAUGGAUUCAUACCCUUGGCAGCGGGAUUAUAAAAUAGGAGUGAUGUUCC [Theophylline A K4 16]	241
UGAUUUAACUGAAGGAGCGGCAAUUGAUAAGUAAAUAUAGUGAUGUUAUAUAAGAUAGAGAGCCAGGUAGGUCGCAGAGGUAUUU [ExArgB.N]	153
UAAUCACUCGAACUGCAAGUACGAGUGGAACGAGGACCGGUACGGCCGCCACUCGAUAACUUGCAGUGAUGUUGCAAGUAAGAAU [(T)''-(K)'-(T)'-(T1)-(T2)-(K1)-(K2)_Design7]	52.8
UUUUUGGUUUAGAGUGAUGUUCCUUGUUUUCGAGGACCGGUACGGCCGCCACUCGAAAAGAAAAGAAAAGAAAAGAGUGAUGUUU [BDazzled - #1 SS Tryptophan A]	311
UAACCGCAGAAAGAUACCAGUGAGUGAUGUUCCUCGAUCCUGUGGUUCAUUCUCUUUACCCACCCUUGGCAGCUUCAAAUGUGAC [theeternabot_exclusion_KL_Theo_B_4]	573
GCGUUACUGAAAGGAUAUGAUCAACAUAGUGGUCAGUGAUGUUGGCAGGCCUCGUGGCGAGGUAGAUCAGAAGGUUCAUUACGAC [theeternabot_sameState_KL_FMN_B_11]	502
CUAGCCGGGAAAGGAUAUACACACGCACAUAACGAGUGAUGUUCGUUAAUACCAACUUGGUUAACUGUAGAAGGUUCAUCGUCAC [theeternabot_sameState_KL_FMN_B_36]	793
UUUUAAUAAAAGGAUACCAGUACAAAUAAAGUACAUUAAUAGUAGAGUGAUGUUCUAAAGUACCCUUGGCAGCUUAGAGUAAGUU [#17 K4 Theophylline B Exclusion]	228
UGAUACCAGACGGCCGCCACUGCACCAGUCAAUGACUGAGUGUAGUAAUGCUCAGUGAUGUUGAGUAGGACCGGGUCUGGUAUCU [Mod of Eli's TrypBX 8 v1]	122
GAUUACAACAGAGUGAUGUUCUGACUUUCUCGAGGACCGGUACGGCCGCCACUCGUUAAACAAAGUGGUUUGCCAAGGCCAACUU	208
GGCACGUUCCCUUGAUCAGUGAUGUUGUUUCGAGGACCGGUACGGCCGCCACUCGCUCGGCGUUCGCCCAGGCCCGGAAAACUGC [theeternabot_exclusion_KL_Trp_A_13]	217
UGUACCGAGUCAGGAUAUAGCGUCGAAAGACGAAUCCUAGUGAUGUUAGGGAUCUGCGAAAGCAGUCUAGAAGGGACUUGGUACU [FmnBS 26 A19+U68]	293
CGAUUUGCUUCAGCCUUAGUGAUGUUAAGGCGAGGACCGGUACGGCCGCCACUCGUAGGUUAUGUGCACGGCGGCGCUAAGGGCC [theeternabot_exclusion_KL_Trp_A_36]	120
CGGAUGUAGUGAUGUUAUAUAAGAAGUAGACGAGGACCGGUACGGCCGCCACUCGAAACGGCUACUAGCGCGUUGCGAGGUGUGC [ExTryptoA.Ch]	688
UUCUUGAUGGAAACAUCGAGGAUCACUGAUACCAGUAUCGAUAGAUACCCUUGGCAGCAGUGUCGGUGGUCACGAGUGAUGUUCG [Ex Theophylline A K4 12]	719
GGAUCCUAGGCGGCCGCCACUCCAAUUGGCCGAAAGGCCUGAUACCGAGUGAUGUUCGGUUGGAGGAGGACCGGGCCUAGGAUCC [#2 Exclusion - Tryptophan B Attempt #2 (HarryS)]	165
UACAGGGAUAGUGAUGUUAUCCCAUGUGAUACCAGUGCCAUCCAACACCCUUGGCAGCAUACGGGCAGUGAUGUUGUUCUUGGUU [Exclusion Theophylline A GF 13]	87.1
